This passage reports stoichiometry N results from PMC6547453.

In experiment [1] the target is full-length RspWYL1 (Ruminococcus sp. WYL1, amino acids 1–392) (Ruminococcus sp.). The experiment in a line: SEC-MALS; HPLC SEC-MALS, AdvanceBio SEC 300A column, 50 mM Tris-HCl pH 7.5, 150 mM NaCl, 1 mM TCEP; RspWYL1 loaded at 10 mg/ml. On the technique in general: In gel filtration, larger molecules generally elute earlier.
Experiment [2] has the same target. The experiment in a line: SEC; Superdex 200 gel filtration column, compared with a protein molecular mass standard mixture.
In experiment [3] the target is RspWYL1 double mutant Y386A/N387A (Ruminococcus sp.). Described as above.
Experiment [4] deals with RspWYL1 double mutant I108D/I109D (Ruminococcus sp.). Described as above.

“full-length RspWYL1 (Ruminococcus sp. WYL1, amino acids 1–392) (natural protein)”: the stoichiometry N in experiment [1] and in experiment [2] was 2 throughout. In the case of “RspWYL1 double mutant Y386A/N387A (natural protein)”, the stoichiometry N in experiment [3] is 2. For the substance “RspWYL1 double mutant I108D/I109D (natural protein)”, in experiment [4], the stoichiometry N stood at 2.

The term stoichiometry N denotes a count of units in the complex or per binding partner.
